How the values were obtained:
[1] = target: His-tagged GMAP (truncated form, 1-490 aa); test: GST-pulldown, quantified band intensity; details: His-GMAP truncated form (aa 1-490); N = 3; parent: est. 3.0 (est. ± 0.7 SD); read off a plot
GST-tagged Atg8a-WT = GST-tagged Atg8a-WT (UniProt Q9W2S2); test: GST-pulldown, quantified band intensity; details: GMAP truncated form (1-490 aa); N = 3; parent: est. 1.6 (est. ± 0.18 SD); read off a plot
UniProt Q9W2S2, sequence (Q9W2S2 entry or part of it): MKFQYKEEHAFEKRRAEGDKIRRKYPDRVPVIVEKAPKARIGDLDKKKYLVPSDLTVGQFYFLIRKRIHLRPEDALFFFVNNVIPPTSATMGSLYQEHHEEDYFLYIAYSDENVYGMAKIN

response [1] | response (GST-tagged Atg8a-WT) | Substance
1 |  | GST-tagged Atg8a-WT (from UniProt Q9W2S2) K48A; Y49A
 | 1 | His-tagged GMAP (truncated form, 1-490 aa) F322A; V325A
